Measurements as given in US20260201396, “New LoxPsym Sites for Large-Scale Orthogonal Cre-Mediated Recombination” (VIB VZW, published 2026).

B1: LoxPsym-AGC (dsDNA)
DNA 1: ATAACTTCGTATAAGCTAGCTTATACGAAGTTAT
DNA 2: ATAACTTCGTATAAGCTAGCTTATACGAAGTTAT
B2: LoxPsym-GTC (dsDNA)
DNA 1: ATAACTTCGTATAGTCTAGACTATACGAAGTTAT
DNA 2: ATAACTTCGTATAGTCTAGACTATACGAAGTTAT
B3: LoxPsym-AGT (dsDNA)
DNA 1: ATAACTTCGTATAAGTTAACTTATACGAAGTTAT
DNA 2: ATAACTTCGTATAAGTTAACTTATACGAAGTTAT
B4: LoxPsym-AGG (dsDNA)
DNA 1: ATAACTTCGTATAAGGTACCTTATACGAAGTTAT
DNA 2: ATAACTTCGTATAAGGTACCTTATACGAAGTTAT
B5: LoxPsym-ACC (dsDNA)
DNA 1: ATAACTTCGTATAACCTAGGTTATACGAAGTTAT
DNA 2: ATAACTTCGTATAACCTAGGTTATACGAAGTTAT
B6: LoxPsym-ATC (dsDNA)
DNA 1: ATAACTTCGTATAATCTAGATTATACGAAGTTAT
DNA 2: ATAACTTCGTATAATCTAGATTATACGAAGTTAT
B7: LoxPsym-ACA (dsDNA)
DNA 1: ATAACTTCGTATAACATATGTTATACGAAGTTAT
DNA 2: ATAACTTCGTATAACATATGTTATACGAAGTTAT
B8: LoxPsym-CGA (dsDNA)
DNA 1: ATAACTTCGTATACGATATCGTATACGAAGTTAT
DNA 2: ATAACTTCGTATACGATATCGTATACGAAGTTAT
B9: LoxPsym-TGA (dsDNA)
DNA 1: ATAACTTCGTATATGATATCATATACGAAGTTAT
DNA 2: ATAACTTCGTATATGATATCATATACGAAGTTAT
B10: LoxPsym-ACG (dsDNA)
DNA 1: ATAACTTCGTATAACGTACGTTATACGAAGTTAT
DNA 2: ATAACTTCGTATAACGTACGTTATACGAAGTTAT
B11: LoxPsym-TGG (dsDNA)
DNA 1: ATAACTTCGTATATGGTACCATATACGAAGTTAT
DNA 2: ATAACTTCGTATATGGTACCATATACGAAGTTAT
B12: LoxPsym-ATA (dsDNA)
DNA 1: ATAACTTCGTATAATATATATTATACGAAGTTAT
DNA 2: ATAACTTCGTATAATATATATTATACGAAGTTAT
B13: LoxPsym-CTC (dsDNA)
DNA 1: ATAACTTCGTATACTCTAGAGTATACGAAGTTAT
DNA 2: ATAACTTCGTATACTCTAGAGTATACGAAGTTAT
B14: LoxPsym-AAG (dsDNA)
DNA 1: ATAACTTCGTATAAAGTACTTTATACGAAGTTAT
DNA 2: ATAACTTCGTATAAAGTACTTTATACGAAGTTAT
B15: LoxPsym-ATT (dsDNA)
DNA 1: ATAACTTCGTATAATTTAAATTATACGAAGTTAT
DNA 2: ATAACTTCGTATAATTTAAATTATACGAAGTTAT
B16: LoxPsym-CCC (dsDNA)
DNA 1: ATAACTTCGTATACCCTAGGGTATACGAAGTTAT
DNA 2: ATAACTTCGTATACCCTAGGGTATACGAAGTTAT
B17: LoxPsym-GAC (dsDNA)
DNA 1: ATAACTTCGTATAGACTAGTCTATACGAAGTTAT
DNA 2: ATAACTTCGTATAGACTAGTCTATACGAAGTTAT
B18: LoxPsym-CGT (dsDNA)
DNA 1: ATAACTTCGTATACGTTAACGTATACGAAGTTAT
DNA 2: ATAACTTCGTATACGTTAACGTATACGAAGTTAT
B19: LoxPsym-GCC (dsDNA)
DNA 1: ATAACTTCGTATAGCCTAGGCTATACGAAGTTAT
DNA 2: ATAACTTCGTATAGCCTAGGCTATACGAAGTTAT
B20: LoxPsym-AAC (dsDNA)
DNA 1: ATAACTTCGTATAAACTAGTTTATACGAAGTTAT
DNA 2: ATAACTTCGTATAAACTAGTTTATACGAAGTTAT
B21: LoxPsym-AGA (dsDNA)
DNA 1: ATAACTTCGTATAAGATATCTTATACGAAGTTAT
DNA 2: ATAACTTCGTATAAGATATCTTATACGAAGTTAT
B22: LoxPsym-TTC (dsDNA)
DNA 1: ATAACTTCGTATATTCTAGAATATACGAAGTTAT
DNA 2: ATAACTTCGTATATTCTAGAATATACGAAGTTAT
B23: LoxPsym-GGG (dsDNA)
DNA 1: ATAACTTCGTATAGGGTACCCTATACGAAGTTAT
DNA 2: ATAACTTCGTATAGGGTACCCTATACGAAGTTAT
B24: LoxPsym-GGC (dsDNA)
DNA 1: ATAACTTCGTATAGGCTAGCCTATACGAAGTTAT
DNA 2: ATAACTTCGTATAGGCTAGCCTATACGAAGTTAT
B25: LoxPsym-TCA (dsDNA)
DNA 1: ATAACTTCGTATATCATATGATATACGAAGTTAT
DNA 2: ATAACTTCGTATATCATATGATATACGAAGTTAT
B26: LoxPsym-GAA (dsDNA)
DNA 1: ATAACTTCGTATAGAATATTCTATACGAAGTTAT
DNA 2: ATAACTTCGTATAGAATATTCTATACGAAGTTAT
B27: LoxPsym-TTT (dsDNA)
DNA 1: ATAACTTCGTATATTTTAAAATATACGAAGTTAT
DNA 2: ATAACTTCGTATATTTTAAAATATACGAAGTTAT
B28: LoxPsym-TCG (dsDNA)
DNA 1: ATAACTTCGTATATCGTACGATATACGAAGTTAT
DNA 2: ATAACTTCGTATATCGTACGATATACGAAGTTAT
B29: LoxPsym-GCA (dsDNA)
DNA 1: ATAACTTCGTATAGCATATGCTATACGAAGTTAT
DNA 2: ATAACTTCGTATAGCATATGCTATACGAAGTTAT
B30: LoxPsym-TCT (dsDNA)
DNA 1: ATAACTTCGTATATCTTAAGATATACGAAGTTAT
DNA 2: ATAACTTCGTATATCTTAAGATATACGAAGTTAT
B31: LoxPsym-CCA (dsDNA)
DNA 1: ATAACTTCGTATACCATATGGTATACGAAGTTAT
DNA 2: ATAACTTCGTATACCATATGGTATACGAAGTTAT
B32: LoxPsym-CCT (dsDNA)
DNA 1: ATAACTTCGTATACCTTAAGGTATACGAAGTTAT
DNA 2: ATAACTTCGTATACCTTAAGGTATACGAAGTTAT
B33: LoxPsym-CAA (dsDNA)
DNA 1: ATAACTTCGTATACAATATTGTATACGAAGTTAT
DNA 2: ATAACTTCGTATACAATATTGTATACGAAGTTAT
B34: LoxPsym-TAA (dsDNA)
DNA 1: ATAACTTCGTATATAATATTATATACGAAGTTAT
DNA 2: ATAACTTCGTATATAATATTATATACGAAGTTAT
B35: LoxPsym-CTA (dsDNA)
DNA 1: ATAACTTCGTATACTATATAGTATACGAAGTTAT
DNA 2: ATAACTTCGTATACTATATAGTATACGAAGTTAT
B36: LoxPsym-GTA (dsDNA)
DNA 1: ATAACTTCGTATAGTATATACTATACGAAGTTAT
DNA 2: ATAACTTCGTATAGTATATACTATACGAAGTTAT
B37: LoxPsym-GTG (dsDNA)
DNA 1: ATAACTTCGTATAGTGTACACTATACGAAGTTAT
DNA 2: ATAACTTCGTATAGTGTACACTATACGAAGTTAT
B38: LoxPsym-CTG (dsDNA)
DNA 1: ATAACTTCGTATACTGTACAGTATACGAAGTTAT
DNA 2: ATAACTTCGTATACTGTACAGTATACGAAGTTAT
B39: LoxPsym-CTT (dsDNA)
DNA 1: ATAACTTCGTATACTTTAAAGTATACGAAGTTAT
DNA 2: ATAACTTCGTATACTTTAAAGTATACGAAGTTAT
B40: LoxPsym-GTT (dsDNA)
DNA 1: ATAACTTCGTATAGTTTAAACTATACGAAGTTAT
DNA 2: ATAACTTCGTATAGTTTAAACTATACGAAGTTAT

Biological target: T1, Cre recombinase (Punavirus P1)
T1 chain: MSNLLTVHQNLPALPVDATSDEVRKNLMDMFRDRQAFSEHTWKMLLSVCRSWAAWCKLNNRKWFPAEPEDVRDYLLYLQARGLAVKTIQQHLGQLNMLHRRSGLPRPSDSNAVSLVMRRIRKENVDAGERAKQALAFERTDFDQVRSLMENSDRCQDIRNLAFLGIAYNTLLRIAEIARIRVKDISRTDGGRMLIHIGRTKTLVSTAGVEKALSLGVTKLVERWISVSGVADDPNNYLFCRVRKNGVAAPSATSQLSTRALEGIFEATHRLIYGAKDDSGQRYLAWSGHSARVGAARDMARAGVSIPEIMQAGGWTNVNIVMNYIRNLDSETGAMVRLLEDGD
Experiment: cell_activity; as above
Excerpt: Similar to the development of the original LoxPsym site by Hoess et al. (1986 J Cell Biochem), we edited the spacer of the LoxP site to obtain new non-directional recombination sites. In doing so, we focused on altering the first three nucleotides of the spacer (FIG. 2), as it was shown before that changing the nucleotides at position 4 and 5 of the spacer (T and A respectively) prevents recombination (Hoess et al 1986). The last three nucleotides were adapted accordingly to ensure the spacer remained palindromic. As such, we were able to design maximally 63 new potential LoxPsym sites. To test if the Cre enzyme was still able to recombine the new LoxPsym variants, we conducted a fluorescent-based assay in yeast via genomic integration of a fluorescence cassette which was flanked by identical LoxPsym variants at both sites (FIGS. 3A and 3C). Recombination of functional LoxPsym variants enables the deletion of the fluorescence cassette. The fraction of non-fluorescent cells in the population after induction of Cre-mediated recombination, was used to determine the recombination efficiency of the new LoxPsym sites. To verify if this set-up is valid for estimation of the recombination efficiency, the dual-fluorescent-reporter system shown in FIG. 3A was used to assess the frequency of inversion/deletion over time. […] Recombination efficiencies largely altered between different LoxPsym variants (Table 1). 63 new LoxPsym variants were obtained with altering recombination efficiencies ranging from 13% to 89%.

Point of comparison: B34, activity 65.5%. Against it:
- B1 — lower, 32.6%
- B2 — lower, 44.3%
- B3 — lower, 43.4%
- B4 — lower, 49.1%
- B5 — lower, 41.4%
- B6 — lower, 56.5%
- B7 — lower, 38.3%
- B8 — lower, 54.4%
- B9 — lower, 58.8%
- B10 — lower, 51.1%
- B11 — higher, 69.1%
- B12 — lower, 43.1%
- B13 — lower, 38.2%
- B14 — lower, 44.1%
- B15 — lower, 42.2%
- B16 — higher, 67.2%
- B17 — higher, 67.4%
- B18 — lower, 46.9%
- B19 — lower, 65.1%
- B20 — lower, 46%
- B21 — lower, 35.1%
- B22 — lower, 62.3%
- B23 — lower, 45.6%
- B24 — lower, 43.6%
- B25 — lower, 39.9%
- B26 — lower, 46.2%
- B27 — lower, 44.5%
- B28 — lower, 59%
- B29 — lower, 59.1%
- B30 — lower, 43.3%
- B31 — lower, 53.9%
- B32 — lower, 51.2%
- B33 — lower, 59.7%
- B35 — lower, 34.1%
- B36 — lower, 64.3%
- B37 — lower, 40.3%
- B38 — lower, 53.1%
- B39 — lower, 34.8%
- B40 — lower, 64.6%
